Test results: patent publication US12540197B2, “Anti-tissue factor antibodies and antibody conjugates, compositions comprising anti-tissue factor antibodies or antibody conjugates, and methods of making and using anti-tissue factor antibodies and antibody conjugates” (SUTRO BIOPHARMA, INC., priority 2023, dated 2026)

Legend:
BxPC3 cells = test: Secondary ADC cell killing assay (antibody + anti-human Fc nanobody conjugated to SC236) on BxPC3; assay type: cell-based; settings: Table 17; nanobody-SC236 20 nM, 120 hrs
Procedure: The internalization ability of the lead antibodies was evaluated by an ADC cell killing assay on Tissue Factor positive BxPC3 cells. A total of 625 cells in a volume of 25 μL were seeded in each well of a 384-well flat bottom white polystyrene plate. Lead antibodies were formulated at 4-fold starting concentration in the cell culture medium and filtered through MultiScreenHTS 96-Well Filter Plates (Millipore; Billerica, Massachusetts). 12.5 μL of antibody was added into each treatment well, and 12.5 μL of anti-human Fc nanobody conjugated to SC236 was then added into each well at a fixed final concentration of 20 nM. Assay plates were cultured at 37° C. in a CO2 incubator for 120 hrs before assay. For cell viability measurement, 30 μL of Cell Titer-Glo® reagent (Promega Corp. Madison, WI) was added into each well, and plates were processed as per product instructions. Relative luminescence was measured on an ENVISION® plate reader (Perkin-Elmer; Waltham, MA). Relative luminescence readings were converted to percent viability using untreated cells as controls. Data was fitted with non-linear regression analysis, using a log (inhibitor) vs. response-variable slope, 4 parameter fit with GraphPad Prism (GraphPad v 5.0, Software; San Diego, California).

human TF = biological target: T1, human TF (Homo sapiens, UniProt P13726); test: Biacore off-rate and kinetic binding, human TF; settings: Table 11, humanized rabbit antibodies; 100 nM antigen, 25° C.
T1 construct: purchased Lake Pharma
Procedure: (§1) Anti-Fc polyclonal antibodies were immobilized onto a CM4 chip (Cytiva #BR100534) using amine coupling chemistry (Human Antibody Capture Kit, Cytiva #BR100839). The immobilization steps were carried out at a flow rate of 25 μL/min in 1×HBS-EP+buffer (Cytiva #BR100669). The sensor surfaces were activated for 7 min with a mixture of N-hydroxysuccinimide (NHS, 0.05 M) and 1-ethyl-3-(3-dimethylaminopropyl)-carbodiimide (EDC, 0.2 M). The anti-Fc polyclonal antibodies were injected over all 4 flow cells at a concentration of 25 μg/mL in 10 mM sodium acetate, pH 4.5, for 7 min. Ethanolamine (1 M, pH 8.5) was injected for 7 min to block any remaining activated groups. Approximately 6,000 response units (RU) of capture antibody was immobilized on each flow cell.
(§2) Off-rate and kinetic binding experiments were performed at 25° C. using 1×HBS-EP+buffer. Antibodies were injected over the anti-Fc surface at a concentration of 3 μg/mL for 12 seconds at a flow rate of 10 μL/min on flow cells 2, 3 and 4, followed by a buffer wash for 30 seconds at the same flow rate. Single point off-rate analysis was carried out using an antigen concentration of 100 nM. […] After capturing ligand (antibody) on the anti-Fc surface, the analyte (human TF, Lake Pharma; cynomolgus TF, Sino Bio #90885-C08H; mouse TF, R&D Systems #3178-PA) was bound for 180 seconds, followed by a 420 second dissociation phase at a flow rate of 50 μL/min. Between each ligand capture and analyte binding cycle, regeneration was carried out using 2 injections of 10 mM glycine pH 2.0 for 30 seconds at 30 μL/min, followed by a 30 second buffer wash step.
(§3) The data were fit with the Biacore T200 Evaluation software, using a 1:1 Langmuir binding model. KD (affinity, nM) was determined as a ratio of the kinetic rate constants calculated from the fits of the association and dissociation phases.
(§4) Anti-Fc polyclonal antibodies were immobilized onto a CM4 chip (Cytiva #BR100534) using amine coupling chemistry (Human Antibody Capture Kit, Cytiva #BR100839). The immobilization steps were carried out at a flow rate of 25 μL/min in 1×HBS-EP+buffer (Cytiva #BR100669). The sensor surfaces were activated for 7 min with a mixture of NHS (0.05 M) and EDC (0.2 M). The Anti-Fc antibodies were injected over all 4 flow cells at a concentration of 25 ug/ml in 10 mM sodium acetate, pH 4.5, for 7 min. Ethanolamine (1 M, pH 8.5) was injected for 7 min to block any remaining activated groups. Approximately 6,000 response units (RU) of capture antibody was immobilized on each flow cell. Off-rate and kinetic binding experiments were performed at 25° C. using 1×HBS-EP+buffer. Antibodies or ADCs were injected over the anti-Fc surface at a concentration of 3 μg/mL for 12 seconds at a flow rate of 10 μL/min on flow cells 2, 3 and 4, followed by a buffer wash for 30 seconds at the same flow rate. […] After capturing ligand (antibody) on the anti-Fc surface, the analyte (human TF, Lake Pharma; cynomolgus TF, Sino Bio #90885-C08H; mouse TF, R&D Systems #3178-PA) was bound for 180 seconds, followed by a 420 second dissociation phase at a flow rate of 50 μL/min. Between each ligand capture and analyte binding cycle, regeneration was carried out using 2 injections of 10 mM Glycine pH 2.0 for 30 seconds at 30 μL/min, followed by a 30 second buffer wash step. The data was fit with the Biacore T200 Evaluation software, using a 1-1 Langmuir binding model. KD (affinity, nM) was determined as a ratio of the kinetic rate constants calculated from the fits of the association and dissociation phases.

[1] = DSF protein thermal shift assay (melting temperatures TM1/TM2); assay type: physicochemical; settings: Table 8, humanized rabbit antibodies; TM2 = Fab domain
Procedure: (§5) A protein thermal shift assay was carried out by mixing the protein to be assayed with an environmentally sensitive dye (SYPRO Orange, Life Technologies #S-6650) and monitoring the fluorescence of the mixture in real time as it underwent controlled thermal denaturation. Protein solutions between 0.2-2 mg/mL were mixed at a 1:1 volumetric ratio with a solution of SYPRO Orange solution diluted 250-fold in PBS+10% sucrose. 10 μL aliquots of the protein-dye mixture were dispensed in quadruplicate in a 384-well microplate (Bio-Rad #MSP-3852). The plate was sealed with an optically clear sealing film (Bio-Rad #MSB-1001) and placed in a 384-well plate real-time thermocycler (Bio-Rad CFX384 Real Time System). The protein-dye mixture was heated from 25° C. to 95° C., at increments of 0.2° C. per cycle, allowing 3 seconds of equilibration at each temperature before taking a fluorescence measurement. At the end of the experiment, the transition melting temperatures (TM1 and TM2) were determined using the Bio-Rad CFX manager software. TM1 represents the melting temperature of the Fc domain. TM2 represents the melting temperature of the Fab domain.
as §5, with “solutions at 1” for “solutions between 0.2-2”, “a 1-1” for “a 1:1”, “sucrose. 5” for “sucrose. 10”

cynomolgus TF = test: Biacore off-rate and kinetic binding, cynomolgus TF; settings: Table 11, humanized rabbit antibodies; 100 nM antigen, 25° C.
Procedure: as §1, §2, §3, §4

T1 sequence (P13726 33-295): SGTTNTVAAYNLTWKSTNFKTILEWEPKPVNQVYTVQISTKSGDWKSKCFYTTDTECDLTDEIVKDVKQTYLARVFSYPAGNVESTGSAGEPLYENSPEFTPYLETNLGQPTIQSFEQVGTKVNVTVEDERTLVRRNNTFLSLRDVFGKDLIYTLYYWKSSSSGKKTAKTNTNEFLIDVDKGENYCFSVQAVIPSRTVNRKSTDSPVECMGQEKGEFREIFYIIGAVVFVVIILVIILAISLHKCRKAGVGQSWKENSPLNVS
cynomolgus TF, sequence (as listed by the source): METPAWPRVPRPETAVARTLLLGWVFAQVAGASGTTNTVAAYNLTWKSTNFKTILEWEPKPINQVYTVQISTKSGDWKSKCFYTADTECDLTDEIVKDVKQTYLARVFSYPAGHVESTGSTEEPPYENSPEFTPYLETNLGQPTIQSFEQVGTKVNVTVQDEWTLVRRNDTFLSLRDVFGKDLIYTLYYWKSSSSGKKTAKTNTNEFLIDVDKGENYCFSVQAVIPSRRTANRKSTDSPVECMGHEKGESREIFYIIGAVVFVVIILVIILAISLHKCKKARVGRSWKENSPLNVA

Molecule	BxPC3 Cell Killing Span (%) (BxPC3 cells)	EC50 (BxPC3 cells) [nM]	Biacore human TF single point off-rate kinetics kd (human TF) [s⁻¹]	DSF TM2 (° C.) [1] [°C]	Biacore cynomolgus TF single point off-rate kinetics kd (cynomolgus TF) [s⁻¹]
SRP2901-B05 (antibody, V domains shown) VH: MQVQVQESGPGLVKPPGTLSLTCAVSGFSLSYYGVSWVRQPPGKGLEWIGTIDSSGRTYYNPSLKSRVTISNDNAPNTVSLKLSSVTAADTAVYYCARDFYGWNSGALDIWGQGTLVTVSS VL: MDLQLTQSPSTLSASVGDRVTITCRASQSVYSNKYLSWYQQKPGKAPKLLIYKASTLASGVPSRFSGSGSGTEFTLTISSLQPDDFATYYCAAAYSDDSDTAFGQGTKVEIK	84	0.059			
SRP2901-E03 (antibody, V domains shown) VH: MEVQLVESGGGLVQPGGSLRLSCAASGFSISSYDMSWVRQAPGKGLEWIGIIGSNGRTYYPDSVKGRFTISRDNSKNTVTLQMNSLRAEDTAVYYCARGLYDGTGNIWGQGTLVTVSS VL: MELVMTQSPPTLSLSPGERVTLSCRASQSVYGNNWLSWYQQKPGQAPRLLIYGASKLATSIPARFSGSGSGTQFTLTISSLQPEDFAVYYCQGTYYSGDWYFAFGQGTKVEIK	92.4	0.166			
SRP2901-D03 (antibody, V domains shown) VH: MEVQLVESGGGLVQPGGSLRLSCAASGFSISSYDMSWVRQAPGKGLEWIGIIGSNGRTYYPDSVKGRFTISRDNSKNTVTLQMNSLRAEDTAVYYCARGLYDGTGNIWGQGTLVTVSS VL: MDLQMTQSPSSLSASVGDRVTITCRASQSVYGNNWLSWYQQKPGKAPKLLIYGASKLASGVPSRFSGSGSGTQFTLTISSLQPEDFATYYCQGTYYSGDWYFAFGQGTKVEIK	77.4	0.184			
SRP2901-F01 (antibody, V domains shown) VH: MQVQVVESGGGLVKPGGSLRLSCAASGFSISSYDMSWIRQAPGKGLEWIGIIGSNGRTYYADSVKGRFTISRNTNENTVYLQMNSLRAEDTAVYYCARGLYDGTGNIWGQGTLVTVSS VL: MDIQMTQSPSSLSASVGDRVTITCQASQSVYGNNWLSWYQQKPGKAPKLLIYGASKLASGVPSRFSGSGSGTDFTLTISSLQPEDFATYYCQGTYYSGDWYFAFGGGTKVEIK	87	0.364			
2842-G04 HC2/LC2 (antibody, conjugated to LP1 at Y180/F404) heavy: MQVQVQESGPGLVKPPGTLSLTCAVSGFSLSYYGVSWVRQPPGKGLEWIGTIDSSGRTYYNPSLKSRVTISNDNAPNTVSLKLSSVTAADTAVYYCARDFYGWNSGALDIWGQGTLVTVSSASTKGPSVFPLAPSSKSTSGGTAALGCLVKDYFPEPVTVSWNSGALTSGVHTFPAVLQSSGLSLSSVVTVPSSSLGTQTYICNVNHKPSNTKVDKKVEPKSCDKTHTCPPCPAPELLGGPSVFLFPPKPKDTLMISRTPEVTCVVVDVSHEDPEVKFNWYVDGVEVHNAKTKPREEQYNSTYRVVSVLTVLHQDWLNGKEYKCKVSNKALPAPIEKTISKAKGQPREPQVYTLPPSREEMTKNQVSLTCLVKGFYPSDIAVEWESNGQPENNYKTTPPVLDSDGSFLYSKLTVDKSRWQQGNVFSCSVMHEALHNHYTQKSLSLSPGK light: MDLQLTQSPSTLSASVGDRVTITCRASQSVYSNKYLSWYQQKPGKAPKLLIYKASTLASGVPSRFSGSGSGTEFTLTISSLQPDDFATYYCAAAYSDDSDTAFGQGTKVEIKRTVAAPSVFIFPPSDEQLKSGTASVVCLLNNFYPREAKVQWKVDNALQSGNSQESVTEQDSKDSTYSLSSTLTLSKADYEKHKVYACEVTHQGLSSPVTKSFNRGEC			0.000736	80.2	0.0017
2842-B01 HC3/LC1 (antibody, conjugated to LP1 at Y180/F404) heavy: MEVQLVESGGGLVQPGGSLRLSCAASGFSISSYDMSWVRQAPGKGLEWIGIIGSNGRTYYPDSVKGRFTISRDNSKNTVTLQMNSLRAEDTAVYYCARGLYDGTGNIWGQGTLVTVSSASTKGPSVFPLAPSSKSTSGGTAALGCLVKDYFPEPVTVSWNSGALTSGVHTFPAVLQSSGLSLSSVVTVPSSSLGTQTYICNVNHKPSNTKVDKKVEPKSCDKTHTCPPCPAPELLGGPSVFLFPPKPKDTLMISRTPEVTCVVVDVSHEDPEVKFNWYVDGVEVHNAKTKPREEQYNSTYRVVSVLTVLHQDWLNGKEYKCKVSNKALPAPIEKTISKAKGQPREPQVYTLPPSREEMTKNQVSLTCLVKGFYPSDIAVEWESNGQPENNYKTTPPVLDSDGSFLYSKLTVDKSRWQQGNVFSCSVMHEALHNHYTQKSLSLSPGK light: MDLQMTQSPSSLSASVGDRVTITCRASQSVYGNNWLSWYQQKPGKAPKLLIYGASKLASGVPSRFSGSGSGTQFTLTISSLQPEDFATYYCQGTYYSGDWYFAFGQGTKVEIKRTVAAPSVFIFPPSDEQLKSGTASVVCLLNNFYPREAKVQWKVDNALQSGNSQESVTEQDSKDSTYSLSSTLTLSKADYEKHKVYACEVTHQGLSSPVTKSFNRGEC			0.000416	86.5	0.00187
